From paper PMC3675483 (Nucleic Acids Research, 2013)

Legend:
[1] = molecular target: Schmallenberg virus (SBV) nucleocapsid (N) protein (Schmallenberg virus); experiment: crystal structure
[2] = molecular target: Schmallenberg virus (SBV) nucleocapsid (N) protein (Schmallenberg virus); experiment: SEC
[3] = molecular target: Schmallenberg virus (SBV) nucleocapsid (N) protein (Schmallenberg virus); experiment: negative-stain electron microscopy with single-particle averaging
[4] = molecular target: Selenomethionine-substituted SBV N protein (Schmallenberg virus); experiment: crystal structure
[5] = molecular target: the molecule itself; experiment: SEC
[6] = molecular target: BUNV N (nucleocapsid) wild type (Bunyamwera virus, UniProt P16495 1-233); experiment: fluorescence polarization
[7] = molecular target: T1, SBV N (nucleocapsid) wild type (Schmallenberg virus isolate BH80/11-1, UniProt H2AM13 1-233); experiment: fluorescence polarization
T1 sequence: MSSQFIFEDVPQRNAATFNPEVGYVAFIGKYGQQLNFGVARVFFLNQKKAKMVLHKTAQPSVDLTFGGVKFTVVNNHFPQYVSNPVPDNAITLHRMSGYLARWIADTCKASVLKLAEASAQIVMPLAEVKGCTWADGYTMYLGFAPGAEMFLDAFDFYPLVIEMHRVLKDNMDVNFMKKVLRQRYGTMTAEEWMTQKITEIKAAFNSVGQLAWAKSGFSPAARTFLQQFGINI

“Schmallenberg virus (SBV) nucleocapsid (N) protein (natural protein)” gave a stoichiometry N [1] of 4, a stoichiometry N [2] of 4 and a stoichiometry N [3] of 4.

“Selenomethionine-substituted SBV N protein (natural protein)” showed a stoichiometry N [4] of 4.

B1: Bunyamwera virus (BUNV) nucleocapsid (N) protein (natural protein)
chain: MIELEFHDVAANTSSTFDPEVAYANFKRVHTTGLSYDHIRIFYIKGREIKTSLAKRSEWEVTLNLGGWKITVYNTNFPGNRNNPVPDDGLTLHRLSGFLARYLLEKMLKVSEPEKLIIKSKIINPLAEKNGITWNDGEEVYLSFFPGSEMFLGTFRFYPLAIGIYKVQRKEMEPKYLEKTMRQRYMGLEAATWTVSKLTEVQSALTVVSSLGWKKTNVSAAARDFLAKFGINM
B1 was tested, and the “stoichiometry N” value [5] was 4.

In the case of AGUAGUGUACUCCACACUACAAACUUGCUAUUGUUGAAAAUCGCUGUG (ssRNA) [BUNV48AG], the Kd [6] is reported as 62.9 ± 5 nM and the Kd [7] is reported as 21.3 ± 1 nM.
